Laboratory results: the supplement of paper PMC5998384

How the values were obtained:
[1] = tested on: HeLa Kyoto; assay: melting temperature (median over replicates), in situ; higher = more thermally stable
[2] = tested on: HeLa Kyoto; assay: thermal stability score vs G1/S (z-score of summed log2 fold changes over temperatures); higher = more thermally stable than in G1/S
[3] = cell cycle stage: early G1 (4.5 h after nocodazole release)
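Throughout, for melting temperature (median over replicates), in situ: HeLa Kyoto cells synchronized by double thymidine or nocodazole block, proteins quantified by TMT10plex mass spectrometry, three independent biological replicates.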
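Throughout, for thermal stability score vs G1/S (z-score of summed log2 fold changes over temperatures): synchronized HeLa Kyoto cells, proteins quantified by TMT10plex mass spectrometry, three biological replicates, mitosis taken 0.5 h after nocodazole release, G1/S directly after double thymidine block.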

Sequence of PDK1 (chain, as listed by the source): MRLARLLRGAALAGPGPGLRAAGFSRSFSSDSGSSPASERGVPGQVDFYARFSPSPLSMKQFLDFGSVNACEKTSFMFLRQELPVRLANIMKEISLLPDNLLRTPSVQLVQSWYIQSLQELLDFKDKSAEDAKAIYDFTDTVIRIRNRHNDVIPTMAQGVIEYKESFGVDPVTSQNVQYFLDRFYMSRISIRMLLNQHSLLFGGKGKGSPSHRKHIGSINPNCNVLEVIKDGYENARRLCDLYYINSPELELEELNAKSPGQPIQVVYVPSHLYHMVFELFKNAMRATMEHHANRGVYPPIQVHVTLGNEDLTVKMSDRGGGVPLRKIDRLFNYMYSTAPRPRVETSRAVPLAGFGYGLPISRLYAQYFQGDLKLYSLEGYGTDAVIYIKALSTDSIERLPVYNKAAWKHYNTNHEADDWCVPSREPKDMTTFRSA

Row | Substance | melting temperature ([1]; cell cycle stage: G1/S) | melting temperature ([1]; cell cycle stage: mitosis) | thermal stability score [2, 3] | thermal stability score ([2]; cell cycle stage: mitosis)
1 | MESMAVATDGGERPGVPAGSGLSASQRRAELRRRKLLMNSEQRINRIMGFHRPGSGAEEESQTKSKQQDSDKLNSLSVPSVSKRVVLGDSVSTGTTDQQGGVAEVKGTQLGDKLDSFIKPPECSSDVNLELRQRNRGDLTADSVQRGSRHGLEQYLSRFEEAMKLRKQLISEKPSQEDGNTTEEFDSFRIFRLVGCALLALGVRAFVCKYLSIFAPFLTLQLAYMGLYKYFPKSEKKIKTTVLTAALLLSGIPAEVINRSMDTYSKMGEVFTDLCVYFFTFIFCHELLDYWGSEVP [CAMLG] | 57.8 °C |  |  | 
2 | MQPPPPGPLGDCLRDWEDLQQDFQNIQETHRLYRLKLEELTKLQNNCTSSITRQKKRLQELALALKKCKPSLPAEAEGAAQELENQMKERQGLFFDMEAYLPKKNGLYLSLVLGNVNVTLLSKQAKFAYKDEYEKFKLYLTIILILISFTCRFLLNSRVTDAAFNFLLVWYYCTLTIRESILINNGSRIKGWWVFHHYVSTFLSGVMLTWPDGLMYQKFRNQFLSFSMYQSFVQFLQYYYQSGCLYRLRALGERHTMDLTVEGFQSWMWRGLTFLLPFLFFGHFWQLFNALTLFNLAQDPQCKEWQVLMCGFPFLLLFLGNFFTTLRVVHHKFHSQRHGSKKD [TMPIT] | 54.2 °C | 53.4 °C |  | 
3 | MAIFRQLSLGAKATLAAVTVFVSMIASRSYLAESLELRAWRWLLRLQLALFVNSLLLIGSLYIWRSTVSNLCHSPAAESTCFQLWKVVVLAFLALAHSSFFTMFFLVAEEPYLFSLAAYSCLGAYIIMLFFLFILSGMEQAYQLLAWRSGRVVGSLEKTRKLVLRPALAVGVTAVLSVAGILNAAQPPAVKTVEVPIHQLPASMNNLKIVLLSDIHLGPTVGRTKMEMFVRMVNVLEPDITVIVGDLSDSEASVLRTAVAPLGQLHSHLGAYFVTGNHEYYTSDVSNWFALLESLHVQPLHNENVKISATRAQRGGGGSGSGSEDEDWICLAGVDDIEADILHYSGHGMDLDKALEGCSPDHTIILLAHQPLAAKRALQARPDINLILSGHTHAGQIFPLNVAAYLLNPFFAGLYQVAQATFVYVSPGTAYYGIPMRLGSRAEITELILQRSP [TMPPE] | 53.6 °C | 53.6 °C |  | 
4 | MTVKTEAAKGTLTYSRMRGMVAILIAFMKQRRMGLNDFIQKIANNSYACKHPEVQSILKISQPQEPELMNANPSPPPSPSQQINLGPSSNPHAKPSDFHFLKVIGKGSFGKVLLARHKAEEVFYAVKVLQKKAILKKKEEKHIMSERNVLLKNVKHPFLVGLHFSFQTADKLYFVLDYINGGELFYHLQRERCFLEPRARFYAAEIASALGYLHSLNIVYRDLKPENILLDSQGHIVLTDFGLCKENIEHNSTTSTFCGTPEYLAPEVLHKQPYDRTVDWWCLGAVLYEMLYGLPPFYSRNTAEMYDNILNKPLQLKPNITNSARHLLEGLLQKDRTKRLGAKDDFMEIKSHVFFSLINWDDLINKKITPPFNPNVSGPNDLRHFDPEFTEEPVPNSIGKSPDSVLVTASVKEAAEAFLGFSYAPPTDSFL [SGK1] |  | 48.3 °C |  | 
5 | MSPLSAARAALRVYAVGAAVILAQLLRRCRGGFLEPVFPPRPDRVAIVTGGTDGIGYSTAKHLARLGMHVIIAGNNDSKAKQVVSKIKEETLNDKVEFLYCDLASMTSIRQFVQKFKMKKIPLHVLINNAGVMMVPQRKTRDGFEEHFGLNYLGHFLLTNLLLDTLKESGSPGHSARVVTVSSATHYVAELNMDDLQSSACYSPHAAYAQSKLALVLFTYHLQRLLAAEGSHVTANVVDPGVVNTDVYKHVFWATRLAKKLLGWLLFKTPDEGAWTSIYAAVTPELEGVGGHYLYNEKETKSLHVTYNQKLQQQLWSKSCEMTGVLDVTL [DHRSX] |  | 52.9 °C |  | 
6 | MASKTKASEALKVVARCRPLSRKEEAAGHEQILTMDVKLGQVTLRNPRAAPGELPKTFTFDAVYDASSKQADLYDETVRPLIDSVLQGFNGTVFAYGQTGTGKTYTMQGTWVEPELRGVIPNAFEHIFTHISRSQNQQYLVRASYLEIYQEEIRDLLSKEPGKRLELKENPETGVYIKDLSSFVTKNVKEIEHVMNLGNQTRAVGSTHMNEVSSRSHAIFIITVECSERGSDGQDHIRVGKLNLVDLAGSERQNKAGPNTAGGAATPSSGGGGGGGGSGGGAGGERPKEASKINLSLSALGNVIAALAGNRSTHIPYRDSKLTRLLQDSLGGNAKTIMVATLGPASHSYDESLSTLRFANRAKNIKNKPRVNEDPKDTLLREFQEEIARLKAQLEKRGMLGKRPRRKSSRRKKAVSAPPGYPEGPVIEAWVAEEEDDNNNNHRPPQPILESALEKNMENYLQEQKERLEEEKAAIQDDRSLVSEEKQKLLEEKEKMLEDLRREQQATELLAAKYKAMESKLLIGGRNIMDHTNEQQKMLELKRQEIAEQKRREREMQQEMMLRDEETMELRGTYTSLQQEVEVKTKKLKKLYAKLQAVKAEIQDQHDEYIRVRQDLEEAQNEQTRELKLKYLIIENFIPPEEKNKIMNRLFLDCEEEQWKFQPLVPAGVSSSQMKKRPTSAVGYKRPISQYARVAMAMGSHPRYRAENIMFLELDVSPPAVFEMEFSHDQEQDPRALHMERLMRLDSFLERPSTSKVRKSRSWCQSPQRPPPSTTHASLASASLRPATVADHE [KIF3C] |  | 50.4 °C |  | 
7 | MENGAVYSPTTEEDPGPARGPRSGLAAYFFMGRLPLLRRVLKGLQLLLSLLAFICEEVVSQCTLCGGLYFFEFVSCSAFLLSLLILIVYCTPFYERVDTTKVKSSDFYITLGTGCVFLLASIIFVSTHDRTSAEIAAIVFGFIASFMFLLDFITMLYEKRQESQLRKPENTTRAEALTEPLNA [CMTM6] | 55.6 °C |  |  | 
8 | MSSSLRPGPSRWRRAASIVLAAGWSRPETATPPSRPPPAEGFRLLLLQRSPHQGFMPGAHVFSGGVLDAADRSADWLGLFAPHHGPPRFGLGPAPFSRTAFPSLPDTDDHKTDNTGTLPEDVAFRICAVREAFEEAGVLLLRPRTSPPGPAPGPGLALEPPPGLASWRDRVRQDPRHFLRLCAHLDCTPDIWALHNWSAWLTPFLRGTTRRFDTAFFLCCLREPPPVYPDLAEVVGYQWSSPSEATESFLSKEIWLPPPQFYEVRRLANFASLSDLHKFCLGRALEGLERWLPIILLTADGMVHLLPGDELYLEDSDFLENLMSTEKKTEEIMKEGKQFHRIVTYHRHLYDIHVTVQPKYKHVYPKNSVVRKSHL [NUDT19] |  |  | -1.25 | -1.33
9 | MGSNSSRIGDLPKNEYLKKLSGTESISENDPFWNQLLSFSFPAPTSSSELKLLEEATISVCRSLVENNPRTGNLGALIKVFLSRTKELKLSAECQNHIFIWQTHNALFIICCLLKVFICQMSEEELQLHFTYEEKSPGNYSSDSEDLLEELLCCLMQLITDIPLLDITYEISVEAISTMVVFLSCQLFHKEVLRQSISHKYLMRGPCLPYTSKLVKTLLYNFIRQEKPPPPGAHVFPQQSDGGGLLYGLASGVATGLWTVFTLGGVGSKAAASPELSSPLANQSLLLLLVLANLTDASDAPNPYRQAIMSFKNTQDSSPFPSSIPHAFQINFNSLYTALCEQQTSDQATLLLYTLLHQNSNIRTYMLARTDMENLVLPILEILYHVEERNSHHVYMALIILLILTEDDGFNRSIHEVILKNITWYSERVLTEISLGSLLILVVIRTIQYNMTRTRDKYLHTNCLAALANMSAQFRSLHQYAAQRIISLFSLLSKKHNKVLEQATQSLRGSLSSNDVPLPDYAQDLNVIEEVIRMMLEIINSCLTNSLHHNPNLVYALLYKRDLFEQFRTHPSFQDIMQNIDLVISFFSSRLLQAGAELSVERVLEIIKQGVVALPKDRLKKFPELKFKYVEEEQPEEFFIPYVWSLVYNSAVGLYWNPQDIQLFTMDSD [DYM] |  |  | 0.139 | 0.823
10 | MSLVPATNYIYTPLNQLKGGTIVNVYGVVKFFKPPYLSKGTDYCSVVTIVDQTNVKLTCLLFSGNYEALPIIYKNGDIVRFHRLKIQVYKKETQGITSSGFASLTFEGTLGAPIIPRTSSKYFNFTTEDHKMVEALRVWASTHMSPSWTLLKLCDVQPMQYFDLTCQLLGKAEVDGASFLLKVWDGTRTPFPSWRVLIQDLVLEGDLSHIHRLQNLTIDILVYDNHVHVARSLKVGSFLRIYSLHTKLQSMNSENQTMLSLEFHLHGGTSYGRGIRVLPESNSDVDQLKKDLESANLTANQHSDVICQSEPDDSFPSSGSVSLYEVERCQQLSATILTDHQYLERTPLCAILKQKAPQQYRIRAKLRSYKPRRLFQSVKLHCPKCHLLQEVPHEGDLDIIFQDGATKTPDVKLQNTSLYDSKIWTTKNQKGRKVAVHFVKNNGILPLSNECLLLIEGGTLSEICKLSNKFNSVIPVRSGHEDLELLDLSAPFLIQGTIHHYGCKQCSSLRSIQNLNSLVDKTSWIPSSVAEALGIVPLQYVFVMTFTLDDGTGVLEAYLMDSDKFFQIPASEVLMDDDLQKSVDMIMDMFCPPGIKIDAYPWLECFIKSYNVTNGTDNQICYQIFDTTVAEDVI [POT1] |  |  | 0.878 | 1.25
11 | MAGLKRRVPLHSLRYFISMVGLFSKPGLLPWYARNPPGWSQLFLGTVCKGDFTRVIATKCQKGQKSQKKPSHLGPLDGSWQERLADVVTPLWRLSYEEQLKVKFAAQKKILQRLESYIQMLNGVSVTTAVPKSERLSCLLHPIIPSPVINGYRNKSTFSVNRGPDGNPKTVGFYLGTWRDGNVVCVQSNHLKNIPEKHSQVAQYYEVFLRQSPLEPCLVFHEGGYWRELTVRTNSQGHTMAIITFHPQKLSQEELHVQKEIVKEFFIRGPGAACGLTSLYFQESTMTRCSHQQSPYQLLFGEPYIFEELLSLKIRISPDAFFQINTAGAEMLYRTVGELTGVNSDTILLDICCGTGVIGLSLAQHTSRVLGIELLEQAVEDARWTAAFNGITNSEFHTGQAEKILPGLLKSKEDGQSIVAVVNPARAGLHYKVIQAIRNFRAIHTLVFVSCKLHGESTRNVIELCCPPDPAKKLLGEPFVLQQAVPVDLFPHTPHCELVLLFTR [TRMT2B] |  |  | 0.356 | 1.27
12 | PDK1 |  |  | -0.202 | 0.796
13 | MSSGNAKIGHPAPNFKATAVMPDGQFKDISLSDYKGKYVVFFFYPLDFTFVCPTEIIAFSDRAEEFKKLNCQVIGASVDSHFCHLAWVNTPKKQGGLGPMNIPLVSDPKRTIAQDYGVLKADEGISFRGLFIIDDKGILRQITVNDLPVGRSVDETLRLVQAFQFTDKHGEVCPAGWKPGSDTIKPDVQKSKEYFSKQK [PRDX1] |  |  | -0.285 | -1.31
14 | MIEVVAELSRGPVFLAGEALECVVTVTNPLPPTATSASSEALAWASAQIHCQFHASESRVALPPPDSSQPDVQPDSQTVFLPHRGERGQCILSTPPKILFCDLRLDPGESKSYSYSEVLPIEGPPSFRGQSVKYVYKLTIGCQRVNSPITLLRVPLRVLVLTGLQDVRFPQDEAVAPSSPFLEEDEGGKKDSWLAELAGERLMAATSCRSLHLYNISDGRGKVGTFGIFKSVYRLGEDVVGTLNLGEGTVACLQFSVSLQTEERVQPEYQRRRGAGGVPSVSHVTHARHQESCLHTTRTSFSLPIPLSSTPGFCTAIVSLKWRLHFEFVTSREPGLVLLPPVEQPEPTTWTGPEQVPVDTFSWDLPIKVLPTSPTLASYAAPGPSTSTITI [RGP1] |  |  | 0.0205 | -1.18
15 | MAAGLRKRGRSGSAAQAEGLCKQWLQRAWQERRLLLREPRYTLLVAACLCLAEVGITFWVIHRVAYTEIDWKAYMAEVEGVINGTYDYTQLQGDTGPLVYPAGFVYIFMGLYYATSRGTDIRMAQNIFAVLYLATLLLVFLIYHQTCKVPPFVFFFMCCASYRVHSIFVLRLFNDPVAMVLLFLSINLLLAQRWGWGCCFFSLAVSVKMNVLLFAPGLLFLLLTQFGFRGALPKLGICAGLQVVLGLPFLLENPSGYLSRSFDLGRQFLFHWTVNWRFLPEALFLHRAFHLALLTAHLTLLLLFALCRWHRTGESILSLLRDPSKRKVPPQPLTPNQIVSTLFTSNFIGICFSRSLHYQFYVWYFHTLPYLLWAMPARWLTHLLRLLVLGLIELSWNTYPSTSCSSAALHICHAVILLQLWLGPQPFPKSTQHSKKAH [ALG3] |  |  | 1.41 | 2.38
